Reference: patent publication US11660961B2, “Host cells and methods for producing isopentenol from mevalonate” (The Regents of the University of California, priority 2015, dated 2023)

B1: NudB: phosphatase (Nudix hydrolase) from E. coli (protein, UniProt P0AFC0 1-150, looked up)
Dihydroneopterin triphosphate …: MKDKVYKRPVSILVVIYAQDTKRVLMLQRRDDPDFWQSVTGSVEEGETAPQAAMREVKEEVTIDVVAEQLTLIDCQRTVEFEIFSHLRHRYAPGVTRNTESWFCLALPHERQIVFTEHLAYKWLDAPAAAALTKSWSNRQAIEQFVINAA

Columns and labels:
E. coli = conditions: intracellular accumulation in pathway II strains
[1] = In vitro hydrolysis of IPP by purified Nudix hydrolase; format: biochemical; conditions: purified enzyme with IPP; up to 16 hours
Description: All metabolites are analyzed by liquid chromatography mass spectrometry (LC-MS; Agilent Technologies 1200 Series HPLC system and Agilent Technologies 6210 time-of-flight mass spectrometer) on a ZIC-HILIC column (150 mm length, 2.1-mm internal diameter, and 3.5-μm particle size). Standard chemicals (IPP and IP) are purchased from Sigma-Aldrich (USA). Metabolites are eluted isocratically with a mobile phase composition of 64% (v/v) acetonitrile containing 50 mM ammonium acetate with a flow rate of 0.15 mL/min. IPP and IP from E. coli extracts or enzyme assay are quantified via […] calibration curves ranging from 781.25 nM to 200 μM.

[2] = In vitro hydrolysis of IP to isopentenol (purified enzyme or cell lysates); format: biochemical; conditions: purified NudB or lysates of cells overexpressing the phosphatase
Description: To identify IP-hydrolyzing endogenous phosphatases, single gene knockout mutants of 36 phosphatases, of which substrates are mostly mono-phosphorylated metabolites, are retrieved from the Keio collection (Baba et al., 2006). 1 mL overnight cultures from each mutant are concentrated in 0.5 mL of 50 mM Tris-HCl (pH 8.0) buffer containing 1 mM DTT and ˜50 mg of glass beads (<100 μm, Sigma-Aldrich, USA). Cells are lysed by bead-beating for 2 min at 6.0 M/s (MP biomedicals Fast Prep, USA). After centrifugation of cell lysates at 20,000 g for 10 min, clear supernatant is used for assay reaction containing 0.5 mM isopentenyl monophosphate (IP). An equal volume of ethyl acetate is added to 100 μL of assay reaction after incubating overnight at 30° C., and isopentenol is extracted for 10 min by vigorous mixing.
Coding sequences of agp, aphA, and yqaB are amplified from BW25113 genome by PCR, and they are subsequently cloned to pBbE1a vector (Lee et al., 2011) for over-expression. Expression of these three genes are induced by addition of 0.5 mM IPTG to the cell cultures, and cell lysates of each sample are prepared with three biological replicates as described above for screening of the 36 mutants. 600 μL of assay reactions containing cell lysates, 1 mM DTT are prepared and the reaction is initiated by addition of 0.5 mM IP. […] Quantification of metabolites

| Molecule | toxicity of accumulated metabolite to cells (E. coli) | IPP hydrolysis product [1] | hydrolysis of IP to isopentenol [2] |
| --- | --- | --- | --- |
| C[C@@](O)(CCOP(=O)(O)O)CC(=O)O [MVAP, MVA monophosphate] | without any significant toxicity |  |  |
| B1 |  | produces only IP | do not show the activity of hydrolyzing IP to Isopentenol |
